According to patent publication US20120130045A1, “BIOMOLECULE-POLYMER CONJUGATES AND METHODS OF MAKING SAME” (ABLITECH, INC., priority 2009, published 2012):

What was measured:
DNase I = DNase I digestion monitored by TLC; assay type: in vitro ADME; settings: for DNase I digestion after six hours (TLC, FIG. 6): model oligonucleotide
Description: Nucleases and proteases are common and result in extremely short half-life for biomolecules not protected from the in vivo environment. In addition, carboxylesterases (CES) are known to be present in many cancerous tumor cells. Therefore, the ability of the biomolecule-polymer conjugates of the disclosure to withstand degradation in the presence of fetal calf serum (FCS) and either DNase I, or 51 nuclease is investigated, as well as the ability of carboxylesterase 1 to degrade the biomolecule-polymer conjugates and release the biomolecule.
Concentrations of treatments were as follows: FCS (30%), DNase I (30 units), 51 nuclease (10 units). Digestions were conducted at 37° C. and monitored by either thin layer chromatography or gel electrophoresis.

[1] = test system: bacterial 16S ribosomal RNA gene; assay: PCR amplification with 8F primer conjugates, gel electrophoresis; assay type: biochemical
Description: The retention and recovery of the original functionality of the biomolecule is a characteristic of the conjugates of the disclosure. In order to test the ability of an oligonucleotide-polymer conjugate of the disclosure to functionally bind its complementary sequence, PCR primers were utilized. The universal bacterial primers 8F (5′-[…]-3′, SEQ ID NO:2) and 1392R (5′-ACGGGCGGTGTGTACA-3′, SEQ ID NO:3) were used to amplify a portion of the bacterial 16S ribosomal RNA gene. The 8F primer conjugated to MPEG-550 networked with MPEG-550 were prepared according to Examples 7 and 9 above, and subjected to DNase I degradation studies.
The MPEG550 conjugate and the MPEG550-networked-conjugate were then treated with NH4OH to release the PCR primers from the MPEG550 via chemical degradation and PCR amplification was then performed. Each 50-μl PCR mixture contained 1 μl template DNA (either E. coli. or an environmental isolate belonging to the genus Streptomonospora), 2 U Taq DNA polymerase (Eppendorf), 1×Taq buffer, […] Mg(OAc)2, 1×Taq Master PCR Enhancer, each deoxynucleoside triphosphate at a concentration of 20 μM, and each primer at a concentration of 0.4 μM. The PCR conditions were 85° C. for 5 min, 30 cycles of 94° C. for 45 s, 55° C. for 1 min, and 72° C. for 90 s, with a final 7 min extension at 72° C.

Substance | DNase I digestion after six hours (TLC, FIG. 6) (DNase I; DNase I 30 units, 37° C.) | DNase I digestion after one hour (TLC, FIG. 9) (DNase I; 8F PCR primer conjugates, DNase I, one hour) | PCR amplification product after NH4OH treatment (1% agarose gel) ([1]; conjugate cleaved in NH4OH for 15 minutes and 18 hours before PCR) | PCR amplification product (1% agarose gel) ([1]; each primer 0.4 μM, with 1392R primer, 30 cycles) | DNase I digestion after one hour (TLC, FIG. 5) (DNase I; DNase I 30 units, 37° C., one hour, model oligonucleotide of Example 1) | DNase I digestion after 3 hours following NH4OH treatment (TLC, FIG. 7) (DNase I; conjugate treated with NH4OH to cleave the L-X bond, then DNase I, 3 hours)
5′-TTTTATTTTATTTTATTTTA-3′ (model oligonucleotide, sugar chemistry not given here, further chemistry not given here) [native model oligonucleotide, reference compound] | completely digested |  |  |  |  | 
MPEG550 conjugate: universal bacterial 8F PCR primer (SEQ ID NO:2) conjugated to MPEG-550 according to Example 7 (DNA AGAGTTTGATCCTGGCTCAG; primer conjugated to MPEG-550, position not given here) |  | resistant to nuclease degradation | yielded the appropriate size amplification product | functional and yielded the appropriate size amplification product |  | 
oligonucleotide-MPEG conjugate: model oligonucleotide of Example 1 (SEQ ID NO:1) conjugated to MPEG550 (methoxy-terminated PEG, MW 550) (TTTTATTTTATTTTATTTTA; DNA, backbone not given here; conjugated to MPEG550 via propargyl chloroformate chemistry, further chemistry not fully specified) | remained intact |  |  |  | resistant to DNase I treatment | allowed for degradation by DNase I
